Laboratory results: article PMC4165587, “Comparison of the Structure and Function of Phospholamban and the Arginine-14 Deficient Mutant Associated with Dilated Cardiomyopathy” (PLoS ONE, 2014)

Target: the molecule itself
Assay: SDS-PAGE; recombinant PLB in isolation, solubilised in LDS sample buffer; 4-12% Bolt Bis-Tris Plus gel, MES SDS running buffer; Coomassie stain

B1: wild type phospholamban (PLBWT), full length, recombinant (natural protein, human, UniProt P26678 1-52, looked up)
chain: MEKVQYLTRSAIRRASTIEMPQQARQKLQNLFINFCLILICLLLICIIVMLL
notes: phospholamban, human, 52 amino acids, full length, non-acetylated; Untagged after TEV cleavage; also called Rec WT; source: E. coli C41(DE3), MBP fusion (pMAL c2X), purified on amylose, cleaved with TEV protease, chloroform/methanol extraction; not shown: MBP, N-terminal, cleaved
  stoichiometry N: 5

B2: phospholamban with a deletion of arginine at position 14 (PLBR14Δ), full length, recombinant (natural protein, human, UniProt P26678 1-52, looked up)
chain: MEKVQYLTRSAIRASTIEMPQQARQKLQNLFINFCLILICLLLICIIVMLL
notes: phospholamban, human, full length, non-acetylated, with the deletion of Arg14 that is associated with human dilated cardiomyopathy; Made from the human PLBWT DNA by site-directed ligase-independent mutagenesis; A synthetic full-length PLBR14Δ was also bought (Activotec), but the experiments written here name the recombinant protein; also called Rec R14Δ; PLBR14D; source: E. coli C41(DE3), MBP …
  stoichiometry N: 5
